# Data from the array DNA melting data of Ke et al..
# Test: melting temperature; melt of duplexes
# Conditions: sodium 0.0675 M; strand 1 µM
row,Substance,Tm [°C]
1,CGACGTGCTCTATGTGCTG+CAGCACATCAAGCACGTCG (((((((((..((((((((+))))))))..))))))))),51.1
2,CGACGTGCAAGATGTGCTG+CAGCACATCTTGCACGTCG (((((((((((((((((((+))))))))))))))))))),63.8
3,CGACGTGCTCCATGTGCTG+CAGCACATACTGCACGTCG ((((((((...((((((((+))))))))...)))))))),47.4
4,CGACGTGCATTATGTGCTG+CAGCACATTCAGCACGTCG ((((((((...((((((((+))))))))...)))))))),48.7
5,CGACGTGCGTTATGTGCTG+CAGCACATGGAGCACGTCG ((((((((...((((((((+))))))))...)))))))),54.8
6,CGACGTGCAATATGTGCTG+CAGCACATGGAGCACGTCG ((((((((...((((((((+))))))))...)))))))),51
7,CGACGTGCGTCATGTGCTG+CAGCACATTTGGCACGTCG ((((((((...((((((((+))))))))...)))))))),48.7
8,CGACGTGCTCTATGTGCTG+CAGCACATCTCGCACGTCG ((((((((...((((((((+))))))))...)))))))),47.1
9,CGACGTGCGCCATGTGCTG+CAGCACATACTGCACGTCG ((((((((...((((((((+))))))))...)))))))),48.2
10,CGACGTGCGGTATGTGCTG+CAGCACATGAAGCACGTCG ((((((((...((((((((+))))))))...)))))))),55.3
11,CGACGTGCTCAATGTGCTG+CAGCACATCACGCACGTCG ((((((((...((((((((+))))))))...)))))))),48.1
12,CGACGTGCATCATGTGCTG+CAGCACATAACGCACGTCG ((((((((.(.((((((((+)))))))).).)))))))),48.3
13,CGACGTGCTTAATGTGCTG+CAGCACATCTCGCACGTCG ((((((((...((((((((+))))))))...)))))))),47.8
14,CGACGTGCTCGATGTGCTG+CAGCACATCCCGCACGTCG ((((((((..(((((((((+)))))))))..)))))))),52.1
15,CGACGTGCAAAATGTGCTG+CAGCACATTTGGCACGTCG ((((((((.((((((((((+)))))))))).)))))))),57.6
16,CGACGTGCCTGATGTGCTG+CAGCACATAATGCACGTCG ((((((((.(.((((((((+)))))))).).)))))))),49.9
17,CGACGTGCTGAATGTGCTG+CAGCACATCATGCACGTCG ((((((((...((((((((+))))))))...)))))))),53.1
18,CGACGTGCGAGATGTGCTG+CAGCACATAGGGCACGTCG ((((((((...((((((((+))))))))...)))))))),50.7
19,CGACGTGCCGCATGTGCTG+CAGCACATACCGCACGTCG ((((((((.(.((((((((+)))))))).).)))))))),48.9
20,CGACGTGCTGCATGTGCTG+CAGCACATTGCGCACGTCG ((((((((...((((((((+))))))))...)))))))),53.5
21,CGACGTGCGGAATGTGCTG+CAGCACATAAAGCACGTCG ((((((((...((((((((+))))))))...)))))))),55.5
22,CGACGTGCATAATGTGCTG+CAGCACATCATGCACGTCG ((((((((((.((((((((+)))))))).)))))))))),54
23,CGACGTGCCAAATGTGCTG+CAGCACATACCGCACGTCG ((((((((...((((((((+))))))))...)))))))),47.3
24,CGACGTGCTATATGTGCTG+CAGCACATGTGGCACGTCG ((((((((.(.((((((((+)))))))).).)))))))),53.6
25,CGACGTGCGTCATGTGCTG+CAGCACATGCCGCACGTCG (((((((((.(((((((((+))))))))).))))))))),59.9
26,CGACGTGCCATATGTGCTG+CAGCACATCCTGCACGTCG ((((((((...((((((((+))))))))...)))))))),47.7
27,CGACGTGCGCTATGTGCTG+CAGCACATTAAGCACGTCG ((((((((...((((((((+))))))))...)))))))),52.8
28,CGACGTGCTTGATGTGCTG+CAGCACATAGAGCACGTCG (((((((((..((((((((+))))))))..))))))))),54.2
